Source: the supplement of paper PMC10567573
± gives the standard deviation.

Assay: protein stability index of a GFP-peptide fusion (GPS, HEK-293T) (PSI 1-6); higher = more stable
[1] = treatment: DMSO, c terminus: a fixed tail appended
[2] = treatment: MLN4924 1 uM, 8 h, c terminus: a fixed tail appended
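Note: 24-mer peptide tiles fused after GFP, lentivirally expressed, FACS-sorted into six equal bins by GFP/DsRed ratio, decoded by Illumina sequencing, PSI is the read-weighted mean bin number.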

| Sequence | protein stability index [1] | protein stability index [2] | protein stability index (treatment: DMSO, c terminus: native) | protein stability index (treatment: MLN4924 1 uM, 8 h, c terminus: native) |
| --- | --- | --- | --- | --- |
| RPSSILPPRRGVSGDRDENSFSLN [MAP2] | 4.67 ± 0.09 | 4.63 ± 0.12 |  |  |
| AFVSNSPKLFCPKNRSFDIDAIYS [PLD5] | 2.15 ± 0.8 | 2.51 ± 0.69 |  |  |
| QLSAPHCKKLSLELGGKNPAIIFE [ALDH8A1] | 2.8 ± 0.26 | 2.9 ± 0.43 |  |  |
| ETPQPSPPGGSGSEPYKLLPGAVA [HNF4A] | 5.06 ± 0.21 | 4.92 ± 0.11 |  |  |
| DWFTSYVKNVVSGGFPIIRDQIFR [FBXO3] | 2.61 ± 0.34 | 2.41 ± 0.39 |  |  |
| MPSPTDVVLPGAVSLRYSGATAAS [ADAMTS4] | 4.16 ± 0.3 | 4.25 ± 0.32 |  |  |
| QARLEEQQRLAHLEDKLRLLAQAR [LRRC45] | 3.37 ± 0.61 | 3.32 ± 0.35 |  |  |
| EELNKEVASNSELVQSSRSEVTEL [KRT16] | 5.51 ± 0.16 | 5.55 ± 0.24 |  |  |
| RALRKMVSNMSGPSGEEEAKVGPG [CBY2] | 4.82 ± 0.23 | 4.87 ± 0.25 |  |  |
| RHYAYLRDSLSHLVPALRLPGRKL [INTS4] | 2.31 ± 0.16 | 2.49 ± 0.45 |  |  |
| PLLSNTFTETNNHWPQGPTGPPGP [EMID1] | 3.53 ± 0.33 | 4.08 ± 0.14 |  |  |
| HKARTRPKARKQGVSPADMYRWKL [ADAMTSL2] | 3.32 ± 0.25 | 3.31 ± 0.42 |  |  |
| CWSFYGQGRKIAEVCCTSIVYATE [KCTD13] | 2.88 ± 0.6 | 2.97 ± 0.79 |  |  |
| WDERGRAAAYSPSEALLYALVHDH [ANKRD9] | 3.02 ± 0.37 | 2.95 ± 0.27 |  |  |
| AKMLLHEGQHPAQLRSDVCTPGGT [PYCR3] | 4.29 ± 0.5 | 4.58 ± 0.9 |  |  |
| NCNWFCEGSFNGSEKETMQFLNDR [KRT33B] | 3.54 ± 0.35 | 3.61 ± 0.19 |  |  |
| GRNHTPFLGHHSFSVRPGTEATIS [SCNN1D] | 3.65 ± 0.14 | 3.78 ± 0.25 |  |  |
| GKGSGGNAGSYIPSYTSWYPSAHQ [DLX1] | 2.56 ± 0.43 | 2.69 ± 0.48 |  |  |
| QRDVGWAALLILFAASLLTVFAWL [C2CD2L] | 2.94 ± 0.34 | 3.05 ± 0.56 |  |  |
| DKVIMKLGKTNAKAVSEMRQKIWN [DYNC2LI1] | 2.31 ± 0.12 | 2.54 ± 0.32 |  |  |
| FQKTKNLLTGETEADPEMIKRAED [CLPTM1] | 5.01 ± 0.42 | 5.31 ± 0.17 |  |  |
| VFIFYYVVEEILELHIHRLRYLSS [PKD2L1] | 2.8 ± 0.091 | 3.07 ± 0.51 |  |  |
| HCLHSAGHSQPDGAYSSASSFSRP [DLX1] | 3.53 ± 0.27 | 3.61 ± 0.17 |  |  |

| Sequence | protein stability index [1] | protein stability index [2] | protein stability index (treatment: DMSO, c terminus: native) | protein stability index (treatment: MLN4924 1 uM, 8 h, c terminus: native) |
| --- | --- | --- | --- | --- |
| NAGLSHTEYQIVTDPGDVPAFLKW [SLC2A12] | 2.92 ± 0.3 | 3.1 ± 0.34 |  |  |
| GFTDRREARKYASNLLKAGFIRHT [DVL3] | 2.66 ± 0.28 | 2.71 ± 0.32 |  |  |
| YRKKSAEFPDFYDSEEPVSTHQEA [CHGB] | 4.97 ± 0.12 | 5.01 ± 0.32 |  |  |
| IQLGVTPPGYSAWIKEEAAERYLY [SLC6A17] | 2.31 ± 0.25 | 2.36 ± 0.15 |  |  |
| IGSSSEKEIDDVIDEIISLESSYN [TFE3] | 4.37 ± 0.25 | 4.4 ± 0.22 |  |  |
| ALLDSLPPPVESELALFQMSVLWL [KLHL14] | 2.45 ± 0.23 | 2.03 ± 0.19 |  |  |
| FTLKEEKPKMYFMTMIVSLAAVAW [ARL6IP1] | 3.4 ± 0.81 | 2.8 ± 0.86 |  |  |
| IGMSAAGMGLTGTMGMGMPNIAMT [CLINT1] | 2.62 ± 0.079 | 2.56 ± 0.13 |  |  |
| KKINSNQLENEQSQENSINPIQKE [SPANXN3] | 5.66 ± 0.29 | 5.58 ± 0.26 |  |  |
| PGEFSDASMSPDATKPSHWCSVAY [SMAD6] | 3.07 ± 0.14 | 3.14 ± 0.19 |  |  |
| VFLGNKRSLSERTVDKCFGRKKYD [SPATS1] | 2.82 ± 0.24 | 3.21 ± 0.16 |  |  |
| PCYDVRYAPSCAKCKKKITGEIMH [PDLIM7] | 3.04 ± 0.39 | 2.97 ± 0.38 |  |  |
| KTSSSSKAGFTASPFTNLLNGSSQ [CDC14A] | 3.46 ± 0.27 | 3.51 ± 0.31 |  |  |
| MCKADLSRNFIERNHMENGGDHRY [TRIM29] | 3.41 ± 0.25 | 3.33 ± 0.26 |  |  |
| VVVSVAGAFRKGKSFILDFMLRYL [ATL3] | 2.55 ± 0.3 | 2.68 ± 0.34 |  |  |
| AKVKLVFVEDQAVVETVFFLTSRT [ZSWIM9] | 3.31 ± 0.38 | 3.01 ± 0.5 |  |  |
| GGFGSMLRALGAQIEKTTNREACR [SDE2] | 3.27 ± 0.41 | 3.34 ± 0.13 |  |  |
| SVWGYDLGLRSLIPAVLTVSMLGY [MYORG] | 3.05 ± 0.29 | 3.06 ± 0.4 |  |  |
| DLLFIVDTMLEEVENKEKDSNMPH [CEP70] | 2.29 ± 0.24 | 2.76 ± 0.38 |  |  |
| MAEEQGRERDSVPKPSVLFLHPDL [ALG2] | 4.36 ± 0.15 | 4.5 ± 0.32 |  |  |
| DEVIDVMQENITKVIERGERLDEL [VAMP4] | 4.77 ± 0.32 | 4.88 ± 0.28 |  |  |
| IPPAAMLDQAPKARKYFERLPGGG [DYRK1B] | 3.72 ± 0.27 | 3.64 ± 0.061 |  |  |
| MSPESYLGSPQHSPSTRGSPNRSL [ATF4] | 4.64 ± 0.19 | 4.91 ± 0.3 |  |  |

| Sequence | protein stability index [1] | protein stability index [2] | protein stability index (treatment: DMSO, c terminus: native) | protein stability index (treatment: MLN4924 1 uM, 8 h, c terminus: native) |
| --- | --- | --- | --- | --- |
| DLEVDMNKTEVTPRLWTTCRDGEV [ACSBG2] | 3.96 ± 0.15 | 3.95 ± 0.064 |  |  |
| QLQDFNIPQAGGWGPWGPWGDCSR [ADAMTS4] | 2.56 ± 0.59 | 3 ± 0.8 |  |  |
| EGEPATQRQDPAAAQEGEDEGASA [GAGE1] | 5.55 ± 0.11 | 5.56 ± 0.26 |  |  |
| RDSTARRPRPQGRSVSEPRDQHPQ [RTN2] | 5.305 ± 0.037 | 5.23 ± 0.098 |  |  |
| KHPQPAPAVTPDPWGVQGGQESEV [PKD2L1] | 5.24 ± 0.22 | 4.97 ± 0.21 |  |  |
| QASVSCALEALEPFWEVLVRSTET [HDAC6] | 2.64 ± 0.57 | 2.46 ± 1.1 |  |  |
| EKYKPFSQVPTGEVFYYSCEYNFV [CFHR2] | 2.78 ± 1.5 |  |  |  |
| LAAVAWVGQQVHNLLLTYLIVTSL [ARL6IP1] | 3.32 ± 0.44 | 3.3 ± 0.53 |  |  |
| NEIIKKLQGDLKTLMGKLKLKNTV [SASS6] |  | 2.21 ± 0.35 |  |  |
| FSKASDSLQLVFGIELMEVDPIGH [MAGEA6] | 2.27 ± 0.56 | 2.42 ± 0.41 |  |  |
| RVKFKSQQHRQGRSHHLEMVIQLL [PTGFR] | 2.44 ± 0.19 | 2.21 ± 0.17 |  |  |
| FSALYWFNYELVKSWLNGFRPKDQ [SLC25A39] | 2.2 ± 0.39 | 2.61 ± 0.92 |  |  |
| LLLAHKADVNAQSSTGNTALTYAC [ANKRD17] | 2.76 ± 0.18 | 2.57 ± 0.18 |  |  |
| VIRRLDETVVNRIAAGEVIQRPAN [MLH1] |  | 3.92 ± 0.28 |  |  |
| PTYKGLLMSLQNQLKESKSKIDAL [CEP70] | 2.45 ± 0.22 | 2.86 ± 0.19 |  |  |
| DTTRQVQRISCFQSTVKCLTVLQR [WDR41] | 2.42 ± 0.33 | 2.63 ± 0.35 |  |  |
| EPSIAPTSCAGNLPSRPPPLLSPL [RSPH3] | 3.72 ± 0.2 | 3.83 ± 0.14 |  |  |
| SNFNYFYHRETEGEEQAQLLHVSS [KCNA1] | 3.95 ± 0.12 | 4.03 ± 0.34 |  |  |
| DLGHVTRISSPQVEEGDSRFLANE [WEE1] | 4.88 ± 0.29 | 4.96 ± 0.27 |  |  |
| PDEAARARLLQEGGGGVAAVVVLD [DUSP5] | 4.3 ± 0.46 | 4.57 ± 0.13 |  |  |
| PVSASRSSLDLSYYPTSSSTSFMS [EMD] | 3.38 ± 0.21 | 3.38 ± 0.13 |  |  |
| MPQYILREFKVTDARDGQSRTVRQ [PTPRD] | 3.75 ± 0.18 | 4.18 ± 0.27 |  |  |
| EEDKDEKSSIYESDFQIEPGFYAT [MIA2] | 4.61 ± 0.062 | 4.46 ± 0.4 |  |  |

| Sequence | protein stability index [1] | protein stability index [2] | protein stability index (treatment: DMSO, c terminus: native) | protein stability index (treatment: MLN4924 1 uM, 8 h, c terminus: native) |
| --- | --- | --- | --- | --- |
| SPPSSSAASSYSFSDLNSTRGDAD [EMD] | 5.12 ± 0.29 | 4.98 ± 0.2 |  |  |
| WTLKLDGNLQLDCLAQGWKQYQQR [RTP4] | 2.2 ± 0.26 | 2.55 ± 0.26 |  |  |
| LPSDGDHQVPTTAGNKAALLDQIR [WASL] | 4.73 ± 0.24 | 4.1 ± 0.84 |  |  |
| LPCNPCATTNASGNSCGPCGTSQK [KRT34] | 4.71 ± 0.12 | 4.86 ± 0.23 |  |  |
| ADGQRHHSKLLVSGFWGVARHFNY [DHCR7] | 2.27 ± 0.43 | 2.14 ± 0.27 |  |  |
| PPLSGALASITETIQVHRRYWRSL [HDAC6] | 2.99 ± 0.33 | 3.15 ± 0.4 |  |  |
| EKQLAKKEQSKELQMKLEKLREKE [FAM50A] | 5.34 ± 0.35 | 5.17 ± 0.39 |  |  |
| KLEWAIDEDELRKSLSELVDDKFG [PSD2] | 4.19 ± 0.086 | 4.09 ± 0.26 |  |  |
| IFSQSSALILHQRIHSGKKPYACD [ZNF396] | 2.32 ± 0.097 | 2.53 ± 0.24 |  |  |
| LPNFAFSVPLAYFLLSQQTDLPEC [TCF25] | 2.72 ± 1.8 | 2.94 ± 0.38 |  |  |
| WGPLQDSLEHTLRVAIAHYQDDPD [TSPAN10] | 3.54 ± 0.28 | 3.69 ± 0.22 |  |  |
| ALATRALPCPAHVVFRYQGVRMS [FCHSD1] |  |  | 3.1 ± 0.67 | 2.58 ± 0.84 |
| AANVVSAKRNRLAPAHVDEQVFLY [ZBED1] | 2.55 ± 0.12 | 2.47 ± 0.27 |  |  |
| HQADLEVANRHGHTCLMISCYKGH [FEM1A] | 2.73 ± 0.33 | 2.69 ± 0.45 |  |  |
| EFIRDILIHPELNEGLMKWENRHE [ELF3] | 2 ± 0.27 | 2.3 ± 0.48 |  |  |
| PVHIHPAFARQAAQEPSAVPRAGP [FOXJ1] | 4.45 ± 0.088 | 4.22 ± 0.15 |  |  |
| PGHIGPPGPTGPKGISGHPGEKGE [EMID1] | 5.59 ± 0.17 | 5.07 ± 0.35 |  |  |
| SKRKAETWKKNRRQLAYSTVGTPD [STK38L] | 4.02 ± 0.41 | 4.33 ± 0.5 |  |  |
| SVILSVKFSPFGQWWASVGMDDFL [TLE6] | 3.22 ± 0.46 | 3.02 ± 0.49 |  |  |
| SSQKQHSFTSSDKTIKSFFPHSGK [C8orf76] | 3.9 ± 0.085 | 4.15 ± 0.14 |  |  |
| DVQARLNRSDHGIFHSRTSLQKLS [FCHSD1] | 3.09 ± 0.22 | 3.16 ± 0.3 |  |  |
